Measured values reported in publication PMC4009068.

Legend:
[1] = biological target: Atg19 (wild type full-length protein) (yeast) (UniProt P35193); assay: ITC
[2] = biological target: Atg19 C-terminus (yeast) (UniProt P35193); assay: SEC

Atg8 (from UniProt P38182 1-117) (natural protein)
Kd [1]: 35 µM | stoichiometry N (Atg8 molecules per 1 Atg19 C-terminus) [2]: 4.14
